Molecular target: HA-tagged PA of FluA (Influenza A virus)
Assay: ELISA

Sequence of soluble wild-type PB1_(1–25)A peptide (non-biotinylated competitor) (A4GCI3 1-25): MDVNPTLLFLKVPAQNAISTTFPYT

soluble wild-type PB1_(1–25)A peptide (non-biotinylated competitor)
IC50: 1.8 nM
